{
  "source": "the nanobody polyreactivity screen of Harvey et al. (2022)",
  "data": [
    {"assay": "yeast display, Sf9 membrane polyspecificity reagent, FACS + sequencing; frameworks hold sequencing errors", "outline": "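After 36–48 hours of galactose induction, yeast (Saccharomyces cerevisiae BJ5465) displaying a synthetic nanobody library were stained at 4 °C for 1 hour with 10% biotinylated, detergent-solubilized Sf9 membrane reagent. Streptavidin microbeads enriched the stained cells before FACS sorting into low and high (top ~1%) gates on anti-HA and streptavidin fluorescence. Each clone's polyreactivity label reflects its gate of origin.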", "values": [
      {"sequence": "QVQLVDSGGGLVQAGGSLRLSCAASGSIFGYYTMGWYRQAPGKERELVAAITSGGSTKYADSVKGRITISRDNAKNTVYLQMNCLKPEDTAVYYCAKVSYYPWRYDYWGPGTQVTVSS", "polyreactivity (PSR sort gate)": "low polyreactivity"},
      {"sequence": "QVQNVDSGGVLVQAGGSLRLSCEASGRIRYYAMGWYRQAPGKERELVAAISSRGGSTYYADSVKGRFTISRDNAKNTVYLLLNSLKPEDTAVYYCAKGGYWGHGTQVTVSS", "polyreactivity (PSR sort gate)": "high polyreactivity"},
      {"sequence": "QVQLVESGGGLVQAGGSLRLSCAASGSILGYYAMGWYRQAPGKERELVADIDNGTSTYYADSVKGRFTISRDNANNTVYLQMISLKPEDTAVYYCADEYYSRYFQSYYWGQGTQVTVSS", "polyreactivity (PSR sort gate)": "low polyreactivity"},
      {"sequence": "QVQLVESGGGLVQAGGSLRLICAASGRTLYLYAMGWSRQAPGKEPELVAAIDWRGTSTYYADSVKGRFTISRDNAKNTVYLQMNSLKPEDTAFYYCNARFRSYLRWYQRDYWGQGTQVTVSS", "polyreactivity (PSR sort gate)": "low polyreactivity"},
      {"sequence": "QVQLVDSVGGLVQAGGSLRLSCAASGFTFGVNVMGWYRQEPGKEREFVAAITWSGDSTYYADSVKGRFTISRDNAKNTVYLQMNSLKPEDSAVYYCAADGNTWPADFLSYYFEFDEYWGQGTQVTVSS", "polyreactivity (PSR sort gate)": "low polyreactivity"},
      {"sequence": "QVQLVESGGGLVQAGGSLRLSCAASGSIFEVDALGWYRQAPGKERELVAAITSSDITYYADSVKGRFTISRDHAKTTVYLQMNSLKPEDTAVYYCNGEPPYRVKRSDYWGQGTQVTVSS", "polyreactivity (PSR sort gate)": "low polyreactivity"},
      {"sequence": "QVQLVESGGGLVQAGGSLRLSCAASGITFRYYAMGWYRQAPGKERELVAAISDGGSTNYADSVKGRFTISRDNAKNTVYLQMNSLKPEDTAVYYCDADYRYLFDYWGQGTQVTVSS", "polyreactivity (PSR sort gate)": "high polyreactivity"},
      {"sequence": "QVQLVESGGGLFQAGGSLRLSCAASGYIFRSYAMGGYRQAPGKERELVAAITRSGGSTYYADSVKGRFTISRDNAKNTVYFQMNSLKPEDTAVYYCAVLPRGSNGMDYCGQGTQVTVSS", "polyreactivity (PSR sort gate)": "low polyreactivity"},
      {"sequence": "QVQLVESGGGLVQAGGSLRLSCAASGRISLSNAMGWYRQAPGKEREFVAAITKRSDRTYYADSVKGRFTISRDNAKNTVYLQMNSLKPEDTAVYYCAAKPLFGTRDEYWGQGTQVTVSS", "polyreactivity (PSR sort gate)": "low polyreactivity"},
      {"sequence": "QVQRVESGGGLVQAGGSLRLSCAASGSTFVNYVMGLYRQAPGKERELVAAISWSGGRTYYADSMKGRFTISRDNAKNTVYLQMNSLKPEDTAVYYCNAVYAGFLRVRYDYWGQGTQVTVSS", "polyreactivity (PSR sort gate)": "high polyreactivity"},
      {"sequence": "QVQLVESGGGLVQAGGSLRLSCAASGRIFYNYAMGWYRQAPGKERELLAAISWSGTSTYYADSVKGRFTISRDNAKNTVYLQMNSLKPEDTAVYYCATDRTYTARGYYLEYHRYDYRGQGTQVTVSS", "polyreactivity (PSR sort gate)": "low polyreactivity"},
      {"sequence": "QVQLVESGGGLVQAGGSLRLSCAASGRIFPDNAMGWYRQAPGKERELVASITSGASTNYADSVKGRFTISRDNAKNTVYLQMNSLKPEDTAVYYCAAVTYAQYRRFDYWGQGTQVTVSS", "polyreactivity (PSR sort gate)": "high polyreactivity"},
      {"sequence": "QVQLVESGGGLVQAGGSLRLSCAASGSTFITNIMGWYRQAPGKERELVAAISYIDGTTYYADSVKGRFTISRDNAKNTVYLQMNSLKPEDTAVYYCAAYPYLYPLRFEEYDHWGQGTQVTVSS", "polyreactivity (PSR sort gate)": "low polyreactivity"},
      {"sequence": "QVQLVESGGGLVQAGGSLRLSCAASGRTFVWNVMGWYRQAPGKEREFVAAISGGSTYYADSVKGRFTISRDNAKNTVYLKMNSLKQEDTPVYYCAAASKLHPRYEYWGQGTQVTVSS", "polyreactivity (PSR sort gate)": "low polyreactivity"},
      {"sequence": "QVQLVESGGGLVQAGGSLRLSCAASGITFLHYAMGWYRQAPGQERELVAAIDYSGGSTYYADSVKGRFTISRDNAKNTVYLEMKSLKPEDTAVYYCNARVPRYNGGSTMEYWGQGTQVTVSS", "polyreactivity (PSR sort gate)": "high polyreactivity"},
      {"sequence": "QVQHVESGGGLVQAGGSLRLSCAASGSIISSYAMGRYRQAPGKERELVASISRRGGSTYYADSVKGRFTISRDNAKNTVSLQMNSLKPEDTAVYYCYPSCGPYRYYYCGQGTQVTVSS", "polyreactivity (PSR sort gate)": "low polyreactivity"},
      {"sequence": "QVQLVDSGGGLVQARGSLRLSCAASGYNFGNAMGWYRQPPGQEREFVAAISSSGSSTYYADSVKGRFTISRDNAKNTVYLQMNSLKPEDTAVYYCAKSRRSAAPKYDYWGQGTQVTVSS", "polyreactivity (PSR sort gate)": "high polyreactivity"},
      {"sequence": "QVQLVESGGGLDQAGGSLRLSCAASGSILPYYAMGWYRQAPGKERELVATITDGTDTYYADSVKGRFTFSRDNAKNTVYLQMNSLKQEDTAVYYCDRKQYWGYDYWGQGTQVTVSS", "polyreactivity (PSR sort gate)": "low polyreactivity"},
      {"sequence": "QVQLVESGVGLVQAGGSLRLSSAASGIIFVSNAMRWYRQAPGKERELVATINWSDDSTYYADSVKGRFTISRDNAKKTVSLQMNSLKADYTAVYYCYCGQGTQVTVSS", "polyreactivity (PSR sort gate)": "low polyreactivity"},
      {"sequence": "QVQLVESGGGLVQAGGSLRLSCAASGRIFDWNTMGRYRQAPGKERELVAAISYEGSTYYADSVKGRFTISRDNAKNTVYLQMNSLKPEDTAVFYCNAYPLTQYFAQGYDYWGQGTQVTVSS", "polyreactivity (PSR sort gate)": "low polyreactivity"},
      {"sequence": "QVQLVESGGGLVQAGGSLRLSCAASGSNFQYYGMGWYRQAPGKERELVASISRSGGSTYYADSVKGRFTISRDNAKNTVYLQMNSLKPEDTAVYYCNAKEAIRRTHLTTTYRDGYWGQGTQVTVSS", "polyreactivity (PSR sort gate)": "low polyreactivity"},
      {"sequence": "QVQLVESGGGLVQAGGSLRLSCAASGYTFQYNDMGWYRQAPGKERELVAGISIGGSTNYADSVKGRFTISRDNAKNTVYLQMNSLKPEDTAVYYCAARTLWFPGTTSTSVGYKYGYWGQGTQVTVSS", "polyreactivity (PSR sort gate)": "low polyreactivity"},
      {"sequence": "QVQLVESGGGLVQAGGSLRLSCAASGSTFQYYARGWYRQAPGKETELVAAISDRDGGTFYADSVKGRFTISRDNAKNTVYLQMNSLKPEDTAVYYCATDAVGFRLDDNGYWGQGTQVTVSS", "polyreactivity (PSR sort gate)": "low polyreactivity"},
      {"sequence": "QVQLVESGGGLVQAGGSLRLSCAGSGGIIGSNAMGWYRQAPGKERELVAAINTRGGRTYYADSVKWRFTISRDNAKNTVYLQMNILKPEDTAVYYCATVSYSSRRDRYDYWGQGTQVTVSS", "polyreactivity (PSR sort gate)": "high polyreactivity"},
      {"sequence": "QVQLVESGGGLVQAGGSLRLSCAASGSTFDTYAMGWYRQAPGKEREFVATITGSGGSTYYADSVKVRFTITRDNAKNTVYLQMNSLKPEDTAVYYCNAETYIDLRGKFPVEYDYWGQGTQVTVSS", "polyreactivity (PSR sort gate)": "low polyreactivity"},
      {"sequence": "QVQLVESGGGLVQAGGSLRLSCAASGSTFGFYAMGWYRQAPGKERELVAAISGRGGSTYYADSVKGRFTISRDNAKNTVYLQMNSLKPEDTAVYYCNADWQDDLAGYDVDYWGQGTQVTVSS", "polyreactivity (PSR sort gate)": "low polyreactivity"},
      {"sequence": "QVQLVESGGGLDQAGGSLRLSCAASGSTFSFYAMGWYRQAPGKERELVAAISRSGGCKFYADYVKGRFSISRDNEKNTVYLQMNRLKPEDTAVYYCAAKSAVVVGMDSWGQGTQVTVSS", "polyreactivity (PSR sort gate)": "high polyreactivity"},
      {"sequence": "QVQLQESGGGLVQAGGSLRLSCAASGNIVDADIMGWYRQAPGKERELVASITDGGSTNYADSVKGRFTISSDNAKNTVYLQMNSLKPEDTAVYYCAAIAYPDIPTYFDYDSEYFYWGQGTQVTVSS", "polyreactivity (PSR sort gate)": "low polyreactivity"},
      {"sequence": "QVQLVESGGGLVQAGCSLRLSCAASGRIFWMNTMGRYRQAPGKERELVAAISFRSDDTYYADSVKGRFTISRDIAKNTVYLQMKSLKPEDTAVYYCNKAWFPYYFYRFDYWGQGTQVTVSS", "polyreactivity (PSR sort gate)": "high polyreactivity"},
      {"sequence": "QVQLVESGGGLVQAGGSLRLSSAASGNIFDYYAMGCYRQAPGKERELVASISWSGRGTYYADSVKGRFTISRDNAKNTVYVQMTSLKAEDTAVYYCAADGSTVNAPRWSDPYDYWGQGSQVTVSS", "polyreactivity (PSR sort gate)": "low polyreactivity"},
      {"sequence": "QVQLVESGGGLVQAGGSLRLSCAASGFTFTRNAMGWYRQAPGKERELVAAISGSGGSTYYADSVKGRFTISRDNAKNTVYLQMNSLKPEDTAVYYCAAPLPWAYAYDYWGQGTQVTVSS", "polyreactivity (PSR sort gate)": "high polyreactivity"},
      {"sequence": "QVQLVESGGGLFHAGGSLRLSCAASGSTFAYYAMGWYIQAPGKERELVAGISGSGGSTYYADSVKGRFTISRDNAKNTVYLQMKSLKPEDNAVYYCAVVQRSKRTYPWYDYWGQGTQVTVCS", "polyreactivity (PSR sort gate)": "low polyreactivity"},
      {"sequence": "QVQLVESGVGLVQAGGSLRLSCAASGNTISYNAMGWSRQAPGKERELVAAIRWSGGSTNYADSVKGRFTISRDNAKNTVYLQMNSLKPEDTAVYYCNARYASTNYGWISYYWGQGNQVTVSS", "polyreactivity (PSR sort gate)": "high polyreactivity"},
      {"sequence": "QVQLVESGGGLVQAGGSLRLRCAASGSTSAYYAMGWYRQAPGKERELVAAISWSGGRTYSADSVKGRFTISRDNAKNTVYLQMNSLKPEDTAVYYCAARFWFTKGYDYWGQGTQVTVSS", "polyreactivity (PSR sort gate)": "high polyreactivity"},
      {"sequence": "QVQLVESGGRLVQAGGSLRLSCAPSGSIFWGYAMGWYRQAPGKERELVAVISRGGSTYYADSVKGRFTISRDNAKNTVYLKMNSLKPEDTAVYYCAASSSWFYSPEYDYWGQGTQVTVSS", "polyreactivity (PSR sort gate)": "low polyreactivity"},
      {"sequence": "QVQLVESGGGLVQAGGSLRLSCAASGSTFRSYAMGGYIQAPGKERELVAAISGRGGSTYYADSVKGRFTISRDNAKNPVYLQMNSLKPEDTAVYYCNAVPGVSYWGQGLDYWGQGTQVTVSS", "polyreactivity (PSR sort gate)": "low polyreactivity"},
      {"sequence": "QVQLVESGGGLVQAGGSLRLSCAASGSTFLSYAMGWYRQAPGTERELVAGIDWSTGDTYYADSEKGRFTISRDNAKNTVYLQMNSLKPEDTAVYYCNKANLYRFWEIDYWGQGTQVTLSS", "polyreactivity (PSR sort gate)": "high polyreactivity"},
      {"sequence": "QVQLVESGGGLVQAGGSLRLSCAASGSTLARYTMGWYRQAPGKERELVATIDFGGVNTYYADSVKGRFTISRDTAKNTVYLQMNSLKPEDTAVYYCAAYNRLKRNVLYDYWGQGTQVTVSS", "polyreactivity (PSR sort gate)": "low polyreactivity"},
      {"sequence": "QVQLVESGGGLVQAGGSLRLSCAASGFTFGGYAMGWYRQAPGNERELVAAISKSGGRTYYADSVKGRFTISRDNAKNTVYLQMNSLKPEDTAVYYCAASTIWHYDSWGQGTQVTVSS", "polyreactivity (PSR sort gate)": "high polyreactivity"},
      {"sequence": "QVQLVESGGGLVQAGGSLRLSCAASGRTFPWYTMGWYRQAPGKERELVAAITRSSGSAYYADSVKGRFTISRDTAKNPVYLQMNSLKQEDTAVYYCAARYWVAGFRGRPYDYWGQGTQVTVSS", "polyreactivity (PSR sort gate)": "high polyreactivity"},
      {"sequence": "QVQLVESGGGLVQAGGSLRLSCAASGSIFNRYTMGWYRQAPGKERELVAAISKRGGSTYYADSVKGRFTISRDNAKNTVYLQMNSLKPEDTAVYYCAAAGYHSGKGGGYWGQGTQVTVSS", "polyreactivity (PSR sort gate)": "high polyreactivity"},
      {"sequence": "QVQLEESGGRLVQAGGSLRLSCAASGYTFPLYAMGWYRQAPGKERELVADINIGGASTYYADSVKGRFTISRDNAKNTVYLQMNSLKPEDTAVYYCAAEDSWYWDAWFDYWGQGTQVTVSS", "polyreactivity (PSR sort gate)": "low polyreactivity"},
      {"sequence": "QVQLVESGGGLVQAGGSLRLSCAASGSIFFFYDMGWYRKATGKERELVAAISSSGTRTYYADSVKGRFTISRDNAKNTVYLQMNSLKPEDTAVYYCAVVYPSENYYRYDYWGQVTQVTVSS", "polyreactivity (PSR sort gate)": "high polyreactivity"}
    ]}
  ]
}
